# Measured values from patent US20180244762A1 (KODIAK SCIENCES, published 2018).
# Assays:
# [1] = target: T1, recombinant human PDGF-BB (human, UniProt P01127 82-190); test: competitive ELISA: binder preincubated with 0.2 nM rhPDGF-BB, competitor immobilized PDGFR/Fc
# T1 construct: also called rhPDGF-BB; rhPDGFBB
# [2] = target: T1, recombinant human PDGF-BB; test: competitive ELISA: OG1448 preincubated with 0.2 nM PDGF-BB plus rhVEGFA-165 at 0.2, 0.6 and 1.0 nM, competitor immobilized PDGFRb/Fc; in the presence of rhVEGFA-165 (0.2, 0.6 and 1.0 nM)
# [3] = target: T1, recombinant human PDGF-BB; test: cell-based or functional assay
# [4] = target: T1, recombinant human PDGF-BB; test: optical biosensor (Proteon XPR36 / Biacore 2000), binder amine-coupled, rhPDGF-BB injected, 25 C
# Procedure: Binding studies were performed at 25° C. and 37° C. using BioRad Proteon XPR36 and Biacore 2000 optical biosensors equipped with GLM (Proteon) and CM4 (Biacore) sensor chips and equilibrated with running buffer (10 m/M HEPES, 150 mM NaCl, 0.005% Teen-20, 0.2 mg/ml BSA).
# T1 sequence (P01127 82-190): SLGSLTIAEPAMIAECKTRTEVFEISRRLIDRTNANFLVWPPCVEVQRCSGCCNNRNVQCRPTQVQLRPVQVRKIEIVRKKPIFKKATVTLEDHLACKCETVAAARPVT
binder,measurement,setting,value
"OG1448 (TAF443 conjugated to the OG1802 biopolymer) (other, OG1802 biopolymer (about 750 kDa, 9-arm HEMA-PC, maleimide) on the cysteine 443 residue (L443C, EU numbering), also called TAF443 polymer conjugate) heavy: LVVTPPGPELVLNVSSTFVLTCSGSAPVVWERMSQEPPQEMAKAQDGTFSSVLTLTNLTGLDTGEYFCTHNDSRGLETDERKRLYIFVPDPTVGFLPNDAEELFIFLTEITEITIPCRVTDPQLVVTLHEKKGDVALPVPYDHQRGFSGIFEDRSYICKTTIGDREVDSDAYYVYRLQVSSINVSVNAVQTVVRQGENITLMCIVIGNEVVNFEWTYPRKESGRLVEPVTDFLLDMPYHIRSILHIPSAELEDSGTYTCNVTESVNDHQDEKAINITVVESGGGGGSGGGGSEVQLVESGGGLVQPGGSLRLSCAASGYDFTHYGMNWVRQAPGKGLEWVGWINTYTGEPTYAADFKRRFTFSLDTSKSTAYLQMNSLRAEDTAVYYCAKYPYYYGTSHWYFDVWGQGTLVTVSSASTKGPSVFPLAPSSKSTSGGTAALGCLVKDYFPEPVTVSWNSGALTSGVHTFPAVLQSSGLYSLSSVVTVPSSSLGTQTYICNVNHKPSNTKVDKKVEPKSCDKTHTCPPCPAPEAAGAPSVFLFPPKPKDTLMISRTPEVTCVVVDVSHEDPEVKFNWYVDGVEVHNAKTKPREEQYNSTYRVVSVLTVLHQDWLNGKEYKCKVSNKALPAPIEKTISKAKGQPREPQVYTLPPSREEMTKNQVSLTCLVKGFYPSDIAVEWESNGQPENNYKTTPPVLDSDGSFFLYSKLTVDKSRWQQGNVFSCSVMHEALHNHYTQKSLSCSPGK light: not shown",IC50,[1],0.054 nM
same,IC50,[2],0.025 nM
same,"Inhibition of PDGF induced proliferation of HPVPs, IC50",[3],2.9 nM
same,Kd,[4],0.017 nM
